Experimental findings from PMC5921417, “The β-glucosidase secreted by Talaromyces amestolkiae under carbon starvation: a versatile catalyst for biofuel production from plant and algal biomass” (Biotechnology for Biofuels, 2018) are described below.

The test system of data set [1] is T1, O=[N+]([O-])c1ccc(O[C@@H]2O[C@H](CO)[C@@H](O)[C@H](O)[C@H]2O)cc1.
T1 construct: native enzyme secreted by T. amestolkiae, purified from culture (Mandels medium, glucose); signal peptide removed; glycosylated; gene codes for 857 aa; non-covalent dimer about 222 kDa; mature N-terminus YSPPAYP deduced from the cloning primer
Briefly: purified protein. It counts as biochemical, Talaromyces amestolkiae. As to conditions: sodium acetate 100 mM pH 4.0, 70 °C (standard reaction), 0.1% BSA.

For data set [2], the system named is O=[N+]([O-])c1ccccc1O[C@@H]1O[C@H](CO)[C@@H](O)[C@H](O)[C@H]1O. Description: purified protein. The following applies: sodium acetate 100 mM pH 4.0, 70 °C (standard reaction), 0.1% BSA.
The target of data set [3] is β-glucosidase BGL-3 from Talaromyces amestolkiae (native enzyme) (Talaromyces amestolkiae). Briefly: SEC; Superose 12 column; native purified BGL-3; mass around 222 kDa against 107.0 kDa for the monomer by MALDI-TOF. In general terms: In gel filtration, larger molecules generally elute earlier.

For “BGL-3 (β-glucosidase g377) (Talaromyces amestolkiae)”, in data set [1], the Km came out at 140 ± 100 µM, the Vmax worked out at 381 µmol/min/mg, the kcat worked out at 1360 s⁻¹ and the kcat/Km amounted to 9.71e+06 M⁻¹ s⁻¹. For the same substance, in data set [2], the Km was 140 ± 100 µM, the Vmax was 142 µmol/min/mg, the kcat turned out to be 507 s⁻¹ and the specificity constant (kcat/Km) came to 3.43e+06 M⁻¹ s⁻¹.
With “β-glucosidase BGL-3 from Talaromyces amestolkiae (native enzyme)”, the stoichiometry N in data set [3] was 2.

For orientation: Km means the substrate concentration at which the rate is half of its maximum. Broadly, the Vmax is the rate approached at saturating substrate. By kcat is commonly meant the number of substrate molecules converted per active site and unit of time at saturation. The kcat/Km is the second-order rate constant that governs catalysis at low substrate concentration. By stoichiometry N is commonly meant the number of molecules, sites or subunits per partner or assembly.
